In US20060287236A1:

Molecular target: transferrin receptor (TfR) (human) (UniProt P02786)
Assay: HeLa cell based 125I-transferrin assay

transferrin receptor (TfR) (human), sequence (P02786 whole entry): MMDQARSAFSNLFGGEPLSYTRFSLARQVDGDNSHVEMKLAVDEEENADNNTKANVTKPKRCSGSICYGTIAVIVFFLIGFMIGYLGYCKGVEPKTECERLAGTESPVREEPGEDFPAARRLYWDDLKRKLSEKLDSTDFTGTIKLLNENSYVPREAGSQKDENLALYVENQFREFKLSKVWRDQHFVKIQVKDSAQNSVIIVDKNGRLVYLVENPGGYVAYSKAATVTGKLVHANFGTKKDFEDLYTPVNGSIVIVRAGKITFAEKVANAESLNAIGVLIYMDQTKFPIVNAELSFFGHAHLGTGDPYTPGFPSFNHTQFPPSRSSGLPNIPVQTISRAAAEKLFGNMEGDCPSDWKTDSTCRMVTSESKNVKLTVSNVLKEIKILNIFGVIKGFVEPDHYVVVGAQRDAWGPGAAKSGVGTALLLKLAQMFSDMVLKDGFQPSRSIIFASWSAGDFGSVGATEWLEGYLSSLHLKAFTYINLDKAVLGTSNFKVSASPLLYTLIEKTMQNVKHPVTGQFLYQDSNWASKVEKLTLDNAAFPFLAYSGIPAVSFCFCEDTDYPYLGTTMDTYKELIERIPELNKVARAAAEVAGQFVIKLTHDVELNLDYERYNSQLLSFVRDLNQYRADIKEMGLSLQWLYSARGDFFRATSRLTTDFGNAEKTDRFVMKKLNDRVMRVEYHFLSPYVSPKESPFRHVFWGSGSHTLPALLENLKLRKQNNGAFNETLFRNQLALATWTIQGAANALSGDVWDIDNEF

K: 105 nM
Substance: soluble H63D-HFE/β2m heterodimer (from UniProt P61769 21-119)
